Assay results reported in publication PMC8249609 (Cell Research, 2021).

B3: cartilage oligomeric matrix protein with a C-terminal His-tag (COMP-His) (natural protein)
chain: not shown
notes: cartilage oligomeric matrix protein, mouse, cDNA NM_016685.2; secreted into the conditioned medium of Sf9 cells; also called purified COMP; pentameric COMP protein

Legend:
[1] = molecular target: B3; assay: SPR; BiaCore 8 K; AT1 amine-coupled to a CM5 chip (~4500 RU); analyte in two-fold dilutions (COMP 0.43–110 nM), 120 s association, 200 s dissociation; 10 mM HEPES pH 7.4, 150 mM NaCl, 0.05% P20, 0.01% DDM, 0.002% CHS; 1:1 binding model; conditions: both partners purified
[2] = molecular target: the molecule itself; assay: native gel or EMSA; COMP-RLuc; 6% native PAGE without SDS and β-mercaptoethanol is the paper's method for the pentameric form of COMP; shown in Supplementary Fig. S11a
[3] = molecular target: the molecule itself; assay: SEC + native gel or EMSA; purified COMP; gel filtration chromatography and non-reduced native PAGE followed by western blotting; pentamer
YFP-tagged AT1 receptor [4] = molecular target: T1, YFP-tagged AT1 receptor ( (human AT1 or mouse AT1a …, UniProt P30556 1-359)); assay: FRET or BRET; as a12, cells pre-incubated with purified COMP (100 nM) for 30 min before AngII; conditions: partners not purified
T1 construct: also called AT1-YFP; Flag-tagged AT1-YFP; source: HEK293T, transfected, in cells
T1 sequence (looked up): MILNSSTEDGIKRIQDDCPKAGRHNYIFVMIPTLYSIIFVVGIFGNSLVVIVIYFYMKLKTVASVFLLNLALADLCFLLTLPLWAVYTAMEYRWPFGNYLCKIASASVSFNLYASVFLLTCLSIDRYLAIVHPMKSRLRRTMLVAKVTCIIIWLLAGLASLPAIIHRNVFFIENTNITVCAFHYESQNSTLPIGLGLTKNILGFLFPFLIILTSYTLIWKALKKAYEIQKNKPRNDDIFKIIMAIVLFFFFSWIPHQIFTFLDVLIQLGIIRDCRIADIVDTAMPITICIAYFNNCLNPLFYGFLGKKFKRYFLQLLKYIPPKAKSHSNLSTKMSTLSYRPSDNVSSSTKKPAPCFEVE

YFP-tagged AT1 receptor [5] = molecular target: T1, YFP-tagged AT1 receptor; assay: FRET or BRET; HEK293T cells co-transfected with AT1-YFP and β-arrestin-1-RLuc or β-arrestin-2-RLuc; vehicle, then increasing AngII for 5 min; BRET ratio YFP/RLuc; conditions: partners not purified
[6] = molecular target: T2, MBP-fusion protein of the COMP EGF domain (mouse, UniProt Q9R0G6 84-261); assay: pull-down; MBP fusion proteins of COMP domains and GST-fused AT1a N-terminus, equimolar, 4 °C 2 h; amylose resin; western blot with anti-GST; conditions: both partners purified
T2 construct: cartilage oligomeric matrix protein, mouse, EGF repeat domain; Vector pMAL-p5x; also called MBP-COMP-EGF; source: E. coli BL21, purified
T2 sequence (looked up): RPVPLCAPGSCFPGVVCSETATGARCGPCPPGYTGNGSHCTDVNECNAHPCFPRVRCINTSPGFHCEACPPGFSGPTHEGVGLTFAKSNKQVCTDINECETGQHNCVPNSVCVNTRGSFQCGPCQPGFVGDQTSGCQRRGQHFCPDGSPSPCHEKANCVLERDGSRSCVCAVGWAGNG

B1: AT1 receptor, residues 1-318, with N-terminal Flag-tag and BRIL (Flag-BRIL-AT1) (receptor, UniProt P30556 1-318, looked up)
chain: MILNSSTEDGIKRIQDDCPKAGRHNYIFVMIPTLYSIIFVVGIFGNSLVVIVIYFYMKLKTVASVFLLNLALADLCFLLTLPLWAVYTAMEYRWPFGNYLCKIASASVSFNLYASVFLLTCLSIDRYLAIVHPMKSRLRRTMLVAKVTCIIIWLLAGLASLPAIIHRNVFFIENTNITVCAFHYESQNSTLPIGLGLTKNILGFLFPFLIILTSYTLIWKALKKAYEIQKNKPRNDDIFKIIMAIVLFFFFSWIPHQIFTFLDVLIQLGIIRDCRIADIVDTAMPITICIAYFNNCLNPLFYGFLGKKFKRYFLQLLK
notes: Order on the chain as printed: Flag-tag, BRIL, AT1; Detergent-solubilised (DDM/CHS in the running buffer); also called purified AT1 receptor; AngII type 1 receptor
Kd [1]: 1.42 ± 0.014 nM

B2: mouse COMP fused with the modified Renilla luciferase at the C-terminus (natural protein)
chain: not shown
notes: cartilage oligomeric matrix protein, mouse; also called COMP-RLuc; source: HEK293T, transfected; not shown: RLuc (modified Renilla luciferase), C-terminal, kept
stoichiometry N [2]: 5

B3
stoichiometry N [3]: 5

B4: β-arrestin-1 fused with Renilla luciferase (natural protein, UniProt P49407 1-418, looked up)
chain: MGDKGTRVFKKASPNGKLTVYLGKRDFVDHIDLVDPVDGVVLVDPEYLKERRVYVTLTCAFRYGREDLDVLGLTFRKDLFVANVQSFPPAPEDKKPLTRLQERLIKKLGEHAYPFTFEIPPNLPCSVTLQPGPEDTGKACGVDYEVKAFCAENLEEKIHKRNSVRLVIRKVQYAPERPGPQPTAETTRQFLMSDKPLHLEASLDKEIYYHGEPISVNVHVTNNTNKTVKKIKISVRQYADICLFNTAQYKCPVAMEEADDTVAPSSTFCKVYTLTPFLANNREKRGLALDGKLKHEDTNLASSTLLREGANREILGIIVSYKVKVKLVVSRGGLLGDLASSDVAVELPFTLMHPKPKEEPPHREVPENETPVDTNLIELDTNDDDIVFEDFARQRLKGMKDDKEEEEDGTGSPQLNNR
notes: β-arrestin-1; also called β-arrestin-1-RLuc; source: HEK293T, transfected, in cells
EC50 of AngII for the recruitment (BRET), with 100 nM COMP (YFP-tagged AT1 receptor [4]): 2.16 nM
EC50 of AngII for the recruitment (BRET), vehicle (YFP-tagged AT1 receptor [5]): 0.89 nM

B5: GST-fused N-terminus of mouse AT1a receptor (aa 1-27) (domain or fragment, UniProt P29754 1-27, looked up)
chain: MALNSSTEDGIKRIQDDCPRAGRHSYI
notes: also called GST-fused N-terminus of AT1a; source: purified (vector pGEX-6P-1; host not clearly stated)
binding result [6]: binds
